Test results published in US20040170622A1, “Methods and compositions for modulating XBP-1 activity” (President and Fellows of Harvard College, priority 2002, published 2004).

B1: IL-4: multi-functional cytokine; recombinant IL-4 used at 20 ng/ml (protein, UniProt P05112 25-153, looked up)
Interleukin-4: HKCDITLQEIIKTLNSLTEQKTLCTELTVTDIFAASKNTTEKETFCRAATVLRQFYSHHEKDTRCLGATAQQFHRHKQLIRFLKRLDRNLWGLAGLNSCPVKEANQSTLENFLERLKTIMREKYSKCSS
B2: XBP-N188: XBP-1 deletion mutant consisting of the N terminal 188 amino acids of the spliced form (protein)
chain: MVVVAAAPSAATAAPKVLLLSGQPASGGRALPLMVPGPRAAGSEASGTPQARKRQRLTHLSPEEKALRRKLKNRVAAQTARDRKKARMSELEQQVVDLEEENHKLQLENQLLREKTHGLVVENQELRTRLGMDTLDPDEVPEVEAKGSGVRLVAGSAESAAGAGPVVTSPEHLPMDSDTVASSDSESD
B3: XBP-N136: XBP-1 deletion mutant consisting of the N terminal 136 amino acids of the spliced form (protein, UniProt O35426 1-136, looked up, fragment)
chain: MVVVAAAPSAATAAPKVLLLSGQPASGGRALPLMVPGPRAAGSEASGTPQARKRQRLTHLSPEEKALRRKLKNRVAAQTARDRKKARMSELEQQVVDLEEENHKLQLENQLLREKTHGLVVENQELRTRLGMDTLD
modifications: XBP-1s
notes: XBP-1 deletion mutant consisting of the N terminal 136 amino acids of the spliced form

Assays:
XBP-1 mRNA splicing = XBP-1 mRNA splicing and XBP-1s protein in purified murine B cells (RT-PCR, Western blot); assay type: cell-based; conditions: for XBP-1 mRNA splicing (RT-PCR): purified murine B cells, 24-72 h
Protocol: (§1) Mouse splenocytes or purified B cells (purified mature B cells were isolated from spleen and lymph nodes by magnetic CD43 depletion or B220 magnetic bead selection, Miltenyi Biotech, Auburn Calif.) were plated at 1×10^6 cells/ml in complete media containing RPMI 1640 supplemented with 10% fetal calf serum (FBS)(Hyclone Laboratories), glutamine (2 mM), penicillin (50 units/ml), streptomycin (50 μg/ml), Hepes (100 mM), nonessential amino acids (1×) sodium pyruvate (1 mM) and β-ME (50 μM) and stimulated with anti-CD40(1 μg/ml)(Pharmigen) or LPS (20 μg/ml)(Sigma). Cytokines (R&D Systems, Minneapolis, Minn.) were used at IL-4 (20 ng/ml), IL-2 (20 ng/ml), Il-5 (20 ng/ml), IL-6 (20 ng/ml ), IL-10 (20 ng/ml ) and IL-13 (20 ng/ml). Stimulated B cells were split to a cell concentration of 1×10^6 cells/ml with fresh media every 24 h. The BCL1 (CWS13.20-3B3 ATCC CRL 1699) cell line was cultured in RPMI media supplemented with 10% FBS, gentamicin (20 μg/ml), and β-ME (50 μM). To induce differentiation cells were plated at 2×10^5 cells/ml and treated with recombinant mouse IL-2 and IL-5 (20 ng/ml) (R&D systems).
Total RNA was isolated using TriZo1 (Gibco-BRL) or Qiashedder/Rneasy RNA purification columns (Quiagen). Northern Blots were performed as described (Rengarajan et al., 2000 Immunity. 12:293-300). […] The following probes were used after ^32P-radiolabeling with the ReadyPrime labeling system (Amersham-Pharmacia): XBP-1 (15-830 of the murine coding region), GRP94 and GRP78 (both a kind gift of R. J. Kaufman Univ. of Michigan (Lee et al., 2002)), Blimp (Nco1-Sca1 fragment), c-myc cDNA and Il-6 cDNA . […]
The UPR is induced in cells that detect irregular amounts of unfolded or unassembled protein in the lumen of the ER. […] Total RNAs were prepared at the indicated time point and XBP-1 mRNA levels (a) were determined by Northern blot analysis with γ-actin control (b). […] XBP-1s protein levels were also measured by Western blot analysis (d). […] In panel (C) XBP-1s protein levels were measured by Western blot analysis in the cells stimulated as indicated for 72 hours.

XBP-1 mRNA = XBP-1 mRNA induction by cytokines in purified splenic B cells (Northern blot); assay type: cell-based, mouse
Protocol: as §1
Total RNA was isolated using TriZo1 (Gibco-BRL) or Qiashedder/Rneasy RNA purification columns (Quiagen). Northern Blots were performed as described (Rengarajan et al., 2000 Immunity. 12:293-300). Briefly, 7-10 μg RNA were electrophoresed on 1.2% agarose, 6% formaldehyde gels transferred onto Genescreen membrane (NEN) and covalently bound to the membrane using UV Stratalinker (Stratagene). The following probes were used after ^32P-radiolabeling with the ReadyPrime labeling system (Amersham-Pharmacia): XBP-1 (15-830 of the murine coding region), GRP94 and GRP78 (both a kind gift of R. J. Kaufman Univ. of Michigan (Lee et al., 2002)), Blimp (Nco1-Sca1 fragment), c-myc cDNA and Il-6 cDNA . […]
Since XBP-1 is required for terminal B cell differentiation, it was important to identify the stimuli that regulate XBP-1 gene expression. A plethora of cytokines (IL-2, IL-4, IL-5, IL-6, IL-10, IL-13) has been implicated in plasma cell differentiation both in vitro and in vivo (reviewed in Calame, K. L. (2001 Nat. Inimunol. 2: 1103-1108; Liu, Y. J., and Banchereau, J. (1997). Sem Immunol 9: 235; Zubler, 1997Sem. Hematol 34:13). It was possible that these cytokines effected terminal B cell differentiation by modulating XBP-1 gene expression. Thus, the ability of these cytokines to upregulate XBP-1 mRNA transcripts in B cells was tested. Purified splenic B cells were cultured for 24 h in the presence or absence of various cytokines and XBP-1 expression determined by Northern blot analysis. […] XBP-1 mRNA levels were determined by Northern blot analysis with γ-actin as control. […] XBP-1 mRNA levels were determined as above. […]

spliced XBP-1 = test: Inhibition of transactivation function of spliced XBP-1, luciferase in NIH 3T3 cells; assay type: cell-based; conditions: NIH 3T3, 200 ng spliced XBP-1, 200 ng mutant
Protocol: Versions of XBP-1 with various deletions of the C terminal transcription activating domain (e.g., consisting of the N terminal 225, 188, or 136 amino acids of the spliced form of XBP-1) that expressed high levels of protein by western analysis were created. The proteins were tested for their ability to inhibit the transactivation function of spliced XBP-1. Both the 188 and 136 N terminal mutants were extremely potent inhibitors (effective at a 1:1 ratio) of the spliced XBP-1. NIH 3T3 cells expressing XBP-1uc constructs were transfected with 200 ng of spliced XBP-1, yielding a relative luciferase activity of 44.5. 200 ng of XBP-N188 lowered the luciferase level to 1.8 and 200 ng of XBP-N136 lowered the luciferase activity to 2.2.

[1] = purified B cells treated with IL-4

Row | Molecule | XBP-1 mRNA splicing (RT-PCR) (XBP-1 mRNA splicing) | relative luciferase activity (spliced XBP-1) | other results
1 | lipopolysaccharide [LPS] | an additional band of 145 bp corresponding to the spliced form of XBP-1 mRNA |  | spliced XBP-1 protein production (XBP-1 mRNA splicing; in the absence of other stimuli): competent to produce substantial amounts of spliced XBP-1 protein
2 | B1 | unable to induce splicing |  | time at which XBP-1 transcript increase is apparent (XBP-1 mRNA; [1]): ≤ 1 h; time of peak of XBP-1 transcripts (XBP-1 mRNA; [1]): around 8 h; XBP-1 transcript induction (XBP-1 mRNA; purified splenic B cells, cytokines 20 ng/ml, 24 h): induced a significant amount of XBP-1 ranscript
3 | B2 |  | 1.8 | 
4 | B3 |  | 2.2 | 
